{
  "source": "paper PMC12121997",
  "key": {"[1]": {"target": "Nucleosome core particle: Cse4-containing histone octamer wrapped with chimeric centromeric DNA (CCEN) (S. cerevisiae | K. lactis) (UniProt P36012)", "assay": "optical trap assay (bead-microtubule binding, then rupture force); 40 nM His6-NCPs held on anti-His6 polystyrene beads; 10 nM OA or 20 nM Mif2, 10 nM 2D-MIND, 10 nM Ndc80c and 5 nM Dam1c free in solution; bead brought by laser trap to the dynamic plus end of a surface-anchored microtubule; 1x BRB80, 1 mM GTP, 16 uM tubulin, room temperature; 1 pN preload, then ramping force until detachment; negative controls with OA or Mif2 omitted"}, "[2]": {"target": "Nucleosome core particle: Cse4-containing histone octamer wrapped with Widom 601 DNA (S. cerevisiae | K. lactis) (UniProt P36012)", "assay": "optical trap assay (bead-microtubule binding, then rupture force); 40 nM His6-NCPs held on anti-His6 polystyrene beads; 10 nM OA or 20 nM Mif2, 10 nM 2D-MIND, 10 nM Ndc80c and 5 nM Dam1c free in solution; bead brought by laser trap to the dynamic plus end of a surface-anchored microtubule; 1x BRB80, 1 mM GTP, 16 uM tubulin, room temperature; 1 pN preload, then ramping force until detachment; negative controls with OA or Mif2 omitted"}},
  "data": [
    {"substance": "Mif2-linker-(27-392)MBP (from UniProt P35201 1-549) (natural protein)", "values": [
      {"measurement": "percent of NCP-coated beads that bound microtubules", "setting": "[1]", "value": "> 78", "unit": "%"},
      {"measurement": "percent of NCP-coated beads that bound microtubules", "setting": "[2]", "value": "> 78", "unit": "%"}
    ]}
  ]
}
